Patent US20240216517A1 (CELLEMEDY, published 2024)

Molecular target: T1, human transferrin receptor-Fc tag standard (human, UniProt P02786 89-760)
T1 construct: This is a bought standard coated on the ELISA plate; also called hTfR; not shown: Fc tag
Assay: ELISA, human transferrin receptor-Fc coated on the plate; Kd calculated from an expected saturation point, curve not saturated at 10000 nM
Experimental: Then, it was washed 3 times with 200 μl of PBST (PBS+Tween0.05%). An antibody (mouse anti-His tag antibody, Hisprobe) that specifically binds to the hexa-His tag was diluted 1/1000 in PBST, and the diluted solution was treated by 100 μl at room temperature for 1 hour.
Then, it was washed 3 times with 200 μl of PBST (PBS+Tween0.05%). TMB solution expressing coloration by reacting with HRP was treated by 100 μl at room temperature for 15 minutes. After 50 μl of 1M H₂SO₄ solution was treated, optical density was measured with TECAN at a wavelength of 450 nm. This was calculated using the Langmuir equation (Table 5, FIGS. 8 to 10).
FIG. 11 illustrates results of evaluation/comparison of the binding force of huHF_mutant1-dual and huHF_mutant2-dual to hTfR.

T1 sequence (P02786 89-760 limits assumed): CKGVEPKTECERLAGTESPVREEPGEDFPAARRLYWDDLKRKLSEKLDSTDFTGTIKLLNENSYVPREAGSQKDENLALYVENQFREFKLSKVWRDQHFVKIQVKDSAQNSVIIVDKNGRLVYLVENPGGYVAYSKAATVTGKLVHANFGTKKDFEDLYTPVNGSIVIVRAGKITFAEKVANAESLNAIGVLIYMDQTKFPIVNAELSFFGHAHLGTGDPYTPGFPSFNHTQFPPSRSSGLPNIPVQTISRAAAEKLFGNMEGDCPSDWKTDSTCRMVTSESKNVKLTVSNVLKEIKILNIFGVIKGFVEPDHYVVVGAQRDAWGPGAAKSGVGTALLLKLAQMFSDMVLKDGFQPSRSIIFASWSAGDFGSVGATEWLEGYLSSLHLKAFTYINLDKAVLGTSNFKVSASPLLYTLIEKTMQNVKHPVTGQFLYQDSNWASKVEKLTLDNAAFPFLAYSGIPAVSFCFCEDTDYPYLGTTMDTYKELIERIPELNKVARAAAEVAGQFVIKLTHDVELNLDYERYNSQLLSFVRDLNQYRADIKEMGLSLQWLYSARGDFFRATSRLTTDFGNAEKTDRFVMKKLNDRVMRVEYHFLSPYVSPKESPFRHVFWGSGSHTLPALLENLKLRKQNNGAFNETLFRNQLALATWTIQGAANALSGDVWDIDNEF

Kd: ~4.4 µM
B1: huHF_Mutant2-dual (designed binder)
chain: MTTASTSQVRQNYHAASEAAINAQINLELYASYVYLSMSYYFDRDDVALKNFAKYFLHQSHEEREHAEKLMKLQNQRGGRIALADIQKPDCDGGSYGSLYAFDIDWESGLNAMECALHLEKNVNQSLLALHALATAKNDPHLCDFIETHYLNEQVKAIKELGDHVTNLRKMGAPESGLAEYLFDKHTLGDSDNESMPSFITLASLSTWEGYFDF
notes: It self-assembles into a 24-mer nanoparticle
